Read-outs that look alike come from different tables or passages of the source.
Experiments:
AR42J tumor xenograft = experiment: In vivo biodistribution of ^203Pb-labeled peptides; set-up: species or system mice; details: DL-lysine 400 mg/kg, 3 h post-administration
Description: (§1) AR42J cells (5.0 × 10^6 cells/animal) were implanted subcutaneously on the left shoulder of female athymic nu/nu mice. […] Extra groups of mice were co-administered 37 kBq of ^203Pb-PSC-PEG2-TOC with DL-lysine (400 mg/kg) to determine the effect of amino acid on renal uptake of the radiopharmaceutical. Mice (n=3 per time point) were euthanized at 1, 3, and 24 h post-administration, and tumors and organs/tissues of interest were excised and weighed. The radioactivities of the samples were measured using the gamma counter.

[1] = In vivo biodistribution of ^203Pb-labeled peptides; set-up: species or system mice; details: female, athymic nu/nu, mouse, intravenous, total radioactivity
Description: as §1

## C[C@@H](O)[C@@H]1NC(=O)[C@H](CCCCN)NC(=O)[C@@H](Cc2c[nH]c3ccccc23)NC(=O)[C@H](Cc2ccc(O)cc2)NC(=O)[C@@H](NC(=O)[C@@H](Cc2ccccc2)NC(=O)CCOCCOCCNC(=O)CN2CCN(CC(=O)O)CCN(CC(N)=O)CCN(CC(=O)O)CC2)CSSC[C@@H](C(=O)N[C@H](CO)[C@@H](C)O)NC1=O [[^203Pb]Pb-PSC-PEG2-TOC, metal not drawn]
AR42J tumor xenograft
  Reduction of renal accumulation by co-administration of DL-lysine: 56%
[1]; blood, 37 kBq, 1 h post-administration, read-out: Blood
  tissue uptake at 1 h: 0.36 ± 0.1 %ID/g
[1]; blood, 37 kBq, 3 h (No Lys), Table S4 study, read-out: Blood
  tissue uptake at 3 h: 0.07 ± 0.02 %ID/g
[1]; blood, 37 kBq, 3 h post-administration, read-out: Blood
  tissue uptake at 3 h: 0.05 %ID/g
[1]; blood, 37 kBq, 24 h post-administration, read-out: Blood
  tissue uptake at 24 h: 0.02 %ID/g
[1]; blood, 1 h, DL-lysine co-administered, read-out: Blood
  tissue uptake at 1 h: 0.36 ± 0.15 %ID/g
[1]; blood, 3 h (Blocking): 10 nmol unlabeled PSC-PEG2-TOC co-administered, read-out: Blood
  tissue uptake at 3 h: 0.13 ± 0.02 %ID/g
[1]; blood, 3 h, DL-lysine co-administered, read-out: Blood
  tissue uptake at 3 h: 0.07 ± 0.02 %ID/g
[1]; blood, DL-lysine co-administered, read-out: Blood
  tissue uptake at 6 h: 0.05 ± 0.03 %ID/g
[1]; blood, 24 h, DL-lysine co-administered, read-out: Blood
  tissue uptake at 24 h: 0.01 %ID/g
[1]; bone marrow, 37 kBq, 3 h (No Lys), Table S4 study, read-out: Bone marrow
  tissue uptake at 3 h: 4.17 ± 1.51 %ID/g
[1]; bone marrow, 1 h, DL-lysine co-administered, read-out: Bone marrow
  tissue uptake at 1 h: 2.42 ± 0.32 %ID/g
[1]; bone marrow, 3 h (Blocking): 10 nmol unlabeled PSC-PEG2-TOC co-administered, read-out: Bone marrow
  tissue uptake at 3 h: 0.99 ± 0.42 %ID/g
[1]; bone marrow, 3 h, DL-lysine co-administered, read-out: Bone marrow
  tissue uptake at 3 h: 4.13 ± 1.55 %ID/g
[1]; bone marrow, DL-lysine co-administered, read-out: Bone marrow
  tissue uptake at 6 h: 1.69 ± 0.34 %ID/g
[1]; bone marrow, 24 h, DL-lysine co-administered, read-out: Bone marrow
  tissue uptake at 24 h: 0.87 ± 0.6 %ID/g
[1]; bone, 37 kBq, 3 h (No Lys), Table S4 study, read-out: Bone
  tissue uptake at 3 h: 0.62 ± 0.24 %ID/g
[1]; bone, 1 h, DL-lysine co-administered, read-out: Bone
  tissue uptake at 1 h: 1.48 ± 0.34 %ID/g
[1]; bone, 3 h (Blocking): 10 nmol unlabeled PSC-PEG2-TOC co-administered, read-out: Bone
  tissue uptake at 3 h: 0.16 ± 0.1 %ID/g
[1]; bone, 3 h, DL-lysine co-administered, read-out: Bone
  tissue uptake at 3 h: 0.48 ± 0.05 %ID/g
[1]; bone, DL-lysine co-administered, read-out: Bone
  tissue uptake at 6 h: 0.35 ± 0.06 %ID/g
[1]; bone, 24 h, DL-lysine co-administered, read-out: Bone
  tissue uptake at 24 h: 0.16 ± 0.04 %ID/g
[1]; brain, 37 kBq, 1 h post-administration, read-out: Brain
  tissue uptake at 1 h: 0.04 ± 0.01 %ID/g
[1]; brain, 37 kBq, 3 h (No Lys), Table S4 study, read-out: Brain
  tissue uptake at 3 h: 0.08 ± 0.06 %ID/g
[1]; brain, 37 kBq, 3 h post-administration, read-out: Brain
  tissue uptake at 3 h: 0.02 %ID/g
[1]; brain, 37 kBq, 24 h post-administration, read-out: Brain
  tissue uptake at 24 h: 0.01 %ID/g
[1]; brain, 1 h, DL-lysine co-administered, read-out: Brain
  tissue uptake at 1 h: 0.04 ± 0.01 %ID/g
[1]; brain, 3 h (Blocking): 10 nmol unlabeled PSC-PEG2-TOC co-administered, read-out: Brain
  tissue uptake at 3 h: 0.03 ± 0.01 %ID/g
[1]; brain, 3 h, DL-lysine co-administered, read-out: Brain
  tissue uptake at 3 h: 0.03 ± 0.01 %ID/g
[1]; brain, DL-lysine co-administered, read-out: Brain
  tissue uptake at 6 h: 0.02 %ID/g
[1]; brain, 24 h, DL-lysine co-administered, read-out: Brain
  tissue uptake at 24 h: 0.01 %ID/g
[1]; heart, 37 kBq, 1 h post-administration, read-out: Heart
  tissue uptake at 1 h: 0.2 ± 0.05 %ID/g
[1]; heart, 37 kBq, 3 h (No Lys), Table S4 study, read-out: Heart
  tissue uptake at 3 h: 0.2 ± 0.13 %ID/g
[1]; heart, 37 kBq, 3 h post-administration, read-out: Heart
  tissue uptake at 3 h: 0.08 ± 0.02 %ID/g
[1]; heart, 37 kBq, 24 h post-administration, read-out: Heart
  tissue uptake at 24 h: 0.03 ± 0.01 %ID/g
[1]; heart, 1 h, DL-lysine co-administered, read-out: Heart
  tissue uptake at 1 h: 0.28 ± 0.08 %ID/g
[1]; heart, 3 h (Blocking): 10 nmol unlabeled PSC-PEG2-TOC co-administered, read-out: Heart
  tissue uptake at 3 h: 0.07 ± 0.03 %ID/g
[1]; heart, 3 h, DL-lysine co-administered, read-out: Heart
  tissue uptake at 3 h: 0.15 ± 0.03 %ID/g
[1]; heart, DL-lysine co-administered, read-out: Heart
  tissue uptake at 6 h: 0.07 ± 0.05 %ID/g
[1]; heart, 24 h, DL-lysine co-administered, read-out: Heart
  tissue uptake at 24 h: 0.03 ± 0.01 %ID/g
[1]; kidneys, 37 kBq, 1 h post-administration, read-out: Kidneys
  tissue uptake at 1 h: 20.6 %ID/g
[1]; kidneys, 37 kBq, 3 h (No Lys), Table S4 study, read-out: Kidneys
  tissue uptake at 3 h: 22.1 ± 1.92 %ID/g
[1]; kidneys, 37 kBq, 3 h post-administration, read-out: Kidneys
  tissue uptake at 3 h: 15.8 ± 1.11 %ID/g
[1]; kidneys, 37 kBq, 24 h post-administration, read-out: Kidneys
  tissue uptake at 24 h: 1.5 %ID/g
[1]; kidneys, 1 h, DL-lysine co-administered, read-out: Kidneys
  tissue uptake at 1 h: 13.3 ± 3.8 %ID/g
[1]; kidneys, 3 h (Blocking): 10 nmol unlabeled PSC-PEG2-TOC co-administered, read-out: Kidneys
  tissue uptake at 3 h: 40.9 ± 9.92 %ID/g
[1]; kidneys, 3 h, DL-lysine co-administered, read-out: Kidneys
  tissue uptake at 3 h: 9.84 ± 0.88 %ID/g
[1]; kidneys, DL-lysine co-administered, read-out: Kidneys
  tissue uptake at 6 h: 5.44 ± 0.63 %ID/g
[1]; kidneys, 24 h, DL-lysine co-administered, read-out: Kidneys
  tissue uptake at 24 h: 1.25 ± 0.86 %ID/g
[1]; large intestine, 37 kBq, 1 h post-administration, read-out: Large intestine
  tissue uptake at 1 h: 1.24 ± 0.12 %ID/g
[1]; large intestine, 37 kBq, 3 h (No Lys), Table S4 study, read-out: Large intestine
  tissue uptake at 3 h: 1.92 ± 0.56 %ID/g
[1]; large intestine, 37 kBq, 3 h post-administration, read-out: Large intestine
  tissue uptake at 3 h: 6.32 ± 0.68 %ID/g
[1]; large intestine, 37 kBq, 24 h post-administration, read-out: Large intestine
  tissue uptake at 24 h: 0.83 ± 0.45 %ID/g
[1]; large intestine, 1 h, DL-lysine co-administered, read-out: Large intestine
  tissue uptake at 1 h: 1.99 ± 0.31 %ID/g
[1]; large intestine, 3 h (Blocking): 10 nmol unlabeled PSC-PEG2-TOC co-administered, read-out: Large intestine
  tissue uptake at 3 h: 0.99 ± 0.46 %ID/g
[1]; large intestine, 3 h, DL-lysine co-administered, read-out: Large intestine
  tissue uptake at 3 h: 3.97 ± 0.97 %ID/g
[1]; large intestine, DL-lysine co-administered, read-out: Large intestine
  tissue uptake at 6 h: 3.34 ± 0.63 %ID/g
[1]; large intestine, 24 h, DL-lysine co-administered, read-out: Large intestine
  tissue uptake at 24 h: 1.01 ± 0.67 %ID/g
[1]; liver, 37 kBq, 1 h post-administration, read-out: Liver
  tissue uptake at 1 h: 0.36 ± 0.05 %ID/g
[1]; liver, 37 kBq, 3 h (No Lys), Table S4 study, read-out: Liver
  tissue uptake at 3 h: 0.31 ± 0.03 %ID/g
[1]; liver, 37 kBq, 3 h post-administration, read-out: Liver
  tissue uptake at 3 h: 0.23 ± 0.02 %ID/g
[1]; liver, 37 kBq, 24 h post-administration, read-out: Liver
  tissue uptake at 24 h: 0.08 ± 0.04 %ID/g
[1]; liver, 1 h, DL-lysine co-administered, read-out: Liver
  tissue uptake at 1 h: 0.44 ± 0.08 %ID/g
[1]; liver, 3 h (Blocking): 10 nmol unlabeled PSC-PEG2-TOC co-administered, read-out: Liver
  tissue uptake at 3 h: 0.3 ± 0.07 %ID/g
[1]; liver, 3 h, DL-lysine co-administered, read-out: Liver
  tissue uptake at 3 h: 0.25 ± 0.05 %ID/g
[1]; liver, DL-lysine co-administered, read-out: Liver
  tissue uptake at 6 h: 0.17 ± 0.02 %ID/g
[1]; liver, 24 h, DL-lysine co-administered, read-out: Liver
  tissue uptake at 24 h: 0.06 ± 0.01 %ID/g
[1]; lung, 37 kBq, 1 h post-administration, read-out: Lung
  tissue uptake at 1 h: 3.58 ± 1.64 %ID/g
[1]; lung, 37 kBq, 3 h (No Lys), Table S4 study, read-out: Lung
  tissue uptake at 3 h: 4.61 ± 3.75 %ID/g
[1]; lung, 37 kBq, 3 h post-administration, read-out: Lung
  tissue uptake at 3 h: 0.38 ± 0.07 %ID/g
[1]; lung, 37 kBq, 24 h post-administration, read-out: Lung
  tissue uptake at 24 h: 1.46 ± 0.4 %ID/g

Source: article PMC10881741, “Structural modifications toward improved lead-203/lead-212 peptide-based image-guided alpha-particle radiopharmaceutical therapies for neuroendocrine tumors” (European Journal of Nuclear Medicine and Molecular Imaging, 2023)
